{
  "source": "patent US20180188270A1",
  "about": "“DIAGNOSTIC TEST FOR ALZHEIMER'S DISEASE BASED ON IDENTIFICATION OF A PROTEOLYTIC PATHWAY” (Health Research, Inc., priority 2015, published 2018)",
  "key": {"FXII [1]": {"test_system": "FXII", "test": "FXII activation, chromogenic assay", "format": "biochemical, human", "method": "Measurement of FXII activation. […] FXII activation was followed for 3 h at RT by monitoring the conversion of the chromogenic substrate at 405 nm by a microtiter plate reader.\nEach value is mean±SD (n=3)."}, "[2]": {"test_system": "plasma coagulation factors FXII, PK, HMWK, FXI, FIX, FX, FII, FI and FVII", "test": "Changes in plasma coagulation factors in mice by IB (FI by ELISA)", "format": "in vivo, mouse", "conditions": "6 h after i.p. treatment", "quoted_text": "Animal studies. […] Male mice at 7-8 weeks of age were used, including wild type (WT) mice (C57BL/6), and mice deficient in FXII (C57BL/6-FXII^−/−) or FVII (C57BL/6-FVII^tTA/tTA). WT C57BL/6 mice were purchased from Taconic. C57BL/6-FXII^−/− mice and C57BL/6-FVII^tTA/tTA mice were bred in our own facility and genotyped. […] CCl4 was dissolved in corn oil, whereas all other substances were dissolved in PBS. The vehicle or the test substance was given to mice in 0.1 ml volume per 20 g body weight. Blood was collected from the mice at specific times by cardiac puncture at the time of sacrifice by carbon dioxide, and heart, liver and kidney were also collected from some of the mice. Blood was collected into K3 EDTA-containing tubes (Multivette 600 from Sarstedt), unless specified otherwise. All blood samples were promptly centrifuged to obtain plasma samples.\nThe plates were washed three times with phosphate buffered saline tween-20 (PBST) and the coated wells were blocked by incubation with 200 μl/well of 1% BSA in PBS for at least 2 h at RT. […] The plates were washed again with PBST, and each well was incubated with a goat anti-rabbit IgG-HRP conjugate (100 μl) for 1 h at RT. After yet another round of wash with PBST, each well was incubated with 100 μl of HRP substrate 3,3′,5,5′-tetramethylbenzedine (Cell Signaling, 7004). Upon adequate color development, 100 μl of stop solution (Cell Signaling, 7002) was added to each well, and absorbance at 450 nm was promptly recorded by a microtiter plate reader. Plasma FI concentration was determined using an assay kit (400-374-130050) from GenWay Biotech, following the manufacturer's instruction.\nIB. Tissue samples were mixed with RIPA buffer (25 mM Tris-HCl, pH 7.6, 150 mM NaCl, 1% Nonidet P-40, 1% sodium deoxycholate, 0.1% SDS), supplemented with 2 mM phenylmethanesulfonyl fluoride, a proteinase inhibitor mix (Roche Applied Science) and phosphatase inhibitor Cocktail 2 (Sigma-Aldrich). Tissue samples were stroked in a Dounce homogenizer, and the homogenates were cleared by centrifugation at 12,000×g for 15 min at 4° C. Protein concentrations in all samples were measured by the BCA assay kit. Plasma samples were used without further processing (20 μl per sample). Each sample was mixed with 4× loading dye, heated for 5 min at 95° C. and then resolved by SDS-PAGE (8-12.5%). […] The proteins were transferred to polyvinylidene fluoride membrane, probed with specific antibodies and detected using the ECL Plus Kit (Amersham) or the SuperSignal West Pico Kit (Thermo Scientific)."}, "FXII [3]": {"test_system": "FXII", "test": "Binding to coagulation factor FXII (IP and IB)", "set-up": "species or system human", "conditions": "40 nM (hAβ1-42 200 nM) with FXII in PBS, 2 h", "quoted_text": "Binding reactions were carried out in PBS in a total volume of 100 μl for 2 h at 37° C. To assess binding of hPEPD to HMWK, PK, FXI, FXII or a FXII mutant, hPEPD at 40 nM was incubated with a potential binding partner at 0.5 μM. All FXII mutants are His tagged, while FXII is either 6XHis-tagged (generated in our own laboratory) or not His-tagged (purchased commercially), depending on the experiment. To compare hPEPD and its mutants for binding to FXII, hPEPD or a mutant (40 nM) was incubated with FXII at 0.5 μM. Likewise, to assess binding of mSRC to FXII and its mutants, mSRC (40 nM) was incubated with FXII or a mutant at 0.5 μM. At the end of the incubation, 300 μl PBS containing a specific primary antibody was added to the incubation solution, which was further incubated at 4° C. overnight, followed by IP by protein G-agarose, and the precipitates were analyzed by IB. […] The precipitates were re-dissolved in 30 μl of 2% SDS, which were analyzed along with the supernatants by IB."}, "[4]": {"test": "hPEPD-degrading activity of mouse plasma samples", "format": "in vitro ADME", "method": "Measurement of in vitro degradation of hPEPD, mSRC and hAβ1-42. To determine whether a blood coagulation factor degrades hPEPD, hPEPD at 90 nM or lower concentrations (10 or 40 nM) was incubated with solvent, 100 nM FIIa, 100 nM FXa, 10 nM FVIIa with or without 10 nM TF, or 10 nM FVII with or without 10 nM TF and/or 100 nM FIIa in PBS in a total volume of 100 μl containing 5 mM CaCl2 for desired times at RT. […] To compare the hPEPD-degrading activities of different plasma samples, 9.2 pmol of hPEPD was incubated with 100 μl of plasma from WT mice or FVII^tTA/tTA mice at RT, with or without FIIa or FXa (10 pmol), and to maximize detection of any activity, all incubations lasted for 24 h. […] Although some clotting activity may take place before and during centrifugation of the blood sample, our experiments indicate that activation of coagulation factors, e.g., FVII, is very limited (see FIG. 5A). To measure remaining hPEPD, the incubated samples were cleared of potential fibrin clots by centrifugation and then analyzed by SDS-PAGE and silver staining (using the LC 6070 kit from Invitrogen), IB or measurement of hPEPD enzymatic activity. hPEPD enzymatic activity was measured using glycyl-proline as a substrate (as described in Zbucka et al., Folia Histochem Cytobiol 2007; 45 Suppl 1: S181-185). The precipitates from each incubated sample were washed with PBS twice and then resuspended in 2.5% SDS (20 μper sample); each solution was mixed with 10 μl loading dye and analyzed for hPEPD by IB, using pure hPEPD as a standard and factor FXIIIa as a binding control, respectively.\nTo measure degradation of hPEPD in plasma samples with or without removal of FVII and FVIIa, plasma samples from WT mice as described above were either used directly or immunodepleted of FVII and FVIIa before use. To remove FVII and FVIIa from plasma, 500 μl plasma was incubated with an antibody specific for FVII/FVIIa (GTX79785; 10 μg) and protein A sepharose beads for 1 h at RT. Following centrifugation at 13,000×g for 1 min at 4° C., the supernatant fraction was collected and analyzed by IB to confirm depletion of FVII and FVIIa. Next, 9.2 pmol of hPEPD was incubated with 100 μl of regular plasma or the plasma depleted of FVII/FVIIa, with or without FIIa (10 pmol) for 24 h at RT. Potential fibrin clots formed during the incubation was removed by centrifugation at the end of the incubation, and remaining hPEPD was measured by hPEPD enzymatic activity analysis."}, "FIIa": {"biological_target": "T1, FIIa (Homo sapiens, UniProt P00734)", "T1 construct": "purchased Haematologic Technologies HCT-0020", "test": "hPEPD stability on incubation with FIIa", "format": "biochemical", "conditions": "hPEPD 90 nM, FIIa 100 nM", "method": "(§1) Measurement of in vitro degradation of hPEPD, mSRC and hAβ1-42. To determine whether a blood coagulation factor degrades hPEPD, hPEPD at 90 nM or lower concentrations (10 or 40 nM) was incubated with solvent, 100 nM FIIa, 100 nM FXa, 10 nM FVIIa with or without 10 nM TF, or 10 nM FVII with or without 10 nM TF and/or 100 nM FIIa in PBS in a total volume of 100 μl containing 5 mM CaCl2 for desired times at RT. […] To compare the hPEPD-degrading activities of different plasma samples, 9.2 pmol of hPEPD was incubated with 100 μl of plasma from WT mice or FVII^tTA/tTA mice at RT, with or without FIIa or FXa (10 pmol), and to maximize detection of any activity, all incubations lasted for 24 h. […] To measure remaining hPEPD, the incubated samples were cleared of potential fibrin clots by centrifugation and then analyzed by SDS-PAGE and silver staining (using the LC 6070 kit from Invitrogen), IB or measurement of hPEPD enzymatic activity. hPEPD enzymatic activity was measured using glycyl-proline as a substrate (as described in Zbucka et al., Folia Histochem Cytobiol 2007; 45 Suppl 1: S181-185). The precipitates from each incubated sample were washed with PBS twice and then resuspended in 2.5% SDS (20 μper sample); each solution was mixed with 10 μl loading dye and analyzed for hPEPD by IB, using pure hPEPD as a standard and factor FXIIIa as a binding control, respectively."}, "plasma mSRC": {"test_system": "plasma mSRC", "test": "Plasma SRC concentration in mice by ELISA", "format": "in vivo, mouse", "conditions": "FXII−/− mice, CCl4 0.5 g/kg or hPEPD 4 mg/kg i.p., 24 h", "method": "Animal studies. All animal studies were performed in accordance with protocols approved by the Institutional Animal Care and Use Committee at Roswell Park Cancer Institute. Male mice at 7-8 weeks of age were used, including wild type (WT) mice (C57BL/6), and mice deficient in FXII (C57BL/6-FXII^−/−) or FVII (C57BL/6-FVII^tTA/tTA). WT C57BL/6 mice were purchased from Taconic. C57BL/6-FXII^−/− mice and C57BL/6-FVII^tTA/tTA mice were bred in our own facility and genotyped. The breeders were kindly provided by Dr. Francis J. Castellino at University of Notre Dame. […] CCl4 was dissolved in corn oil, whereas all other substances were dissolved in PBS. The vehicle or the test substance was given to mice in 0.1 ml volume per 20 g body weight. Blood was collected from the mice at specific times by cardiac puncture at the time of sacrifice by carbon dioxide, and heart, liver and kidney were also collected from some of the mice. […]\nMeasurement of plasma levels of PEPD, SRC, Aβ1-42 and FI. […] Upon adequate color development, 100 μl of stop solution (Cell Signaling, 7002) was added to each well, and absorbance at 450 nm was promptly recorded by a microtiter plate reader. Plasma FI concentration was determined using an assay kit (400-374-130050) from GenWay Biotech, following the manufacturer's instruction."}, "plasma Aβ1-42": {"test_system": "plasma Aβ1-42", "test": "Plasma Aβ1-42 concentration in mice by ELISA", "format": "in vivo, mouse", "conditions": "FXII−/− mice, CCl4 0.5 g/kg or hPEPD 4 mg/kg i.p., 24 h", "quoted_text": "Animal studies. All animal studies were performed in accordance with protocols approved by the Institutional Animal Care and Use Committee at Roswell Park Cancer Institute. Male mice at 7-8 weeks of age were used, including wild type (WT) mice (C57BL/6), and mice deficient in FXII (C57BL/6-FXII^−/−) or FVII (C57BL/6-FVII^tTA/tTA). WT C57BL/6 mice were purchased from Taconic. C57BL/6-FXII^−/− mice and C57BL/6-FVII^tTA/tTA mice were bred in our own facility and genotyped. […] CCl4 was dissolved in corn oil, whereas all other substances were dissolved in PBS. The vehicle or the test substance was given to mice in 0.1 ml volume per 20 g body weight. Blood was collected from the mice at specific times by cardiac puncture at the time of sacrifice by carbon dioxide, and heart, liver and kidney were also collected from some of the mice. Blood was collected into K3 EDTA-containing tubes (Multivette 600 from Sarstedt), unless specified otherwise. All blood samples were promptly centrifuged to obtain plasma samples.\nMeasurement of plasma levels of PEPD, SRC, Aβ1-42 and FI. […] The plates were washed three times with phosphate buffered saline tween-20 (PBST) and the coated wells were blocked by incubation with 200 μl/well of 1% BSA in PBS for at least 2 h at RT. After another round of wash with PBST, the plates were incubated with appropriately diluted Aβ1-42 standard, SRC standard or plasma samples (100 μl/well) for 2 h at RT. The plates were then washed with PBST and incubated with an anti-Aβ1-42 rabbit polyclonal antibody (sc-9129) or anti-SRC rabbit monoclonal antibody (2123) at 100 μl/well for 2 h at RT. The plates were washed again with PBST, and each well was incubated with a goat anti-rabbit IgG-HRP conjugate (100 μl) for 1 h at RT. After yet another round of wash with PBST, each well was incubated with 100 μl of HRP substrate 3,3′,5,5′-tetramethylbenzedine (Cell Signaling, 7004). Upon adequate color development, 100 μl of stop solution (Cell Signaling, 7002) was added to each well, and absorbance at 450 nm was promptly recorded by a microtiter plate reader."}, "FXa": {"biological_target": "T2, FXa (Homo sapiens, UniProt P00742)", "T2 construct": "purchased Haematologic Technologies HCXA-0060", "T2 sequence (P00742 41-179 limits assumed)": "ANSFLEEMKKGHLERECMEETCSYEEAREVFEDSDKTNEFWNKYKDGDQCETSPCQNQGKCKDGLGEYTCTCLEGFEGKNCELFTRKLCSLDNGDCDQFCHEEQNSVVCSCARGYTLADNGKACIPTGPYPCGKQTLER", "T2 sequence (P00742 235-488 limits assumed)": "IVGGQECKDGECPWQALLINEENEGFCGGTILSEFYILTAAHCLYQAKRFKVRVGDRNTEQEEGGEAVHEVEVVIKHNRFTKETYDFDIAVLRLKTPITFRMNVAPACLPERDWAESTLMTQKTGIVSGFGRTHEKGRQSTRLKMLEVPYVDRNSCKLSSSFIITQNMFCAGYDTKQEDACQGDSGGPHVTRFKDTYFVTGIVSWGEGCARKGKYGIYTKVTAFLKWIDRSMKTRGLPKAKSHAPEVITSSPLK", "test": "hPEPD stability on incubation with FXa", "format": "biochemical", "conditions": "hPEPD 90 nM, FXa 100 nM", "method": "as §1"}},
  "data": [
    {"molecule": "hPEPD: recombinant human prolidase (PEPD), 6xHis tagged to the carboxy terminus (protein, UniProt P12955 2-493, looked up, C-terminal 6xHis tag, recombinant human prolidase (PEPD), 6xHis tagged to the carboxy terminus) Xaa-Pro dipeptidase: AAATGPSFWLGNETLKVPLALFALNRQRLCERLRKNPAVQAGSIVVLQGGEETQRYCTDTGVLFRQESFFHWAFGVTEPGCYGVIDVDTGKSTLFVPRLPASHATWMGKIHSKEHFKEKYAVDDVQYVDEIASVLTSQKPSVLLTLRGVNTDSGSVCREASFDGISKFEVNNTILHPEIVECRVFKTDMELEVLRYTNKISSEAHREVMKAVKVGMKEYELESLFEHYCYSRGGMRHSSYTCICGSGENSAVLHYGHAGAPNDRTIQNGDMCLFDMGGEYYCFASDITCSFPANGKFTADQKAVYEAVLRSSRAVMGAMKPGVWWPDMHRLADRIHLEELAHMGILSGSVDAMVQAHLGAVFMPHGLGHFLGIDVHDVGGYPEGVERIDEPGLRSLRTARHLQPGMVLTVEPGIYFIDHLLDEALADPARASFLNREVLQRFRGFGGVRIEEDVVVTDSGIELLTCVPRTVEEIEACMAGCDKAFTPFSGPK", "values": [
      {"measurement": "FXII activation", "setting": "FXII [1]; FXII 0.97 nM, ZnCl2-containing PBS, RT", "value": "did not differ in activating FXII"},
      {"measurement": "Zn2+ requirement of FXII activation", "setting": "FXII [1]; with or without ZnCl2 15 μM, IB", "value": "required Zn^2+"},
      {"measurement": "activation/cleavage of plasma coagulation factors", "setting": "[2]; FXII−/− mice", "value": "no activation of HMWK, FXI, PK and FIX, but slight activation of FX, FII and FVII"},
      {"measurement": "activation/cleavage of plasma coagulation factors", "setting": "[2]; WT mice", "value": "caused cleavage or activation of many coagulation factors"},
      {"measurement": "binding to FXII", "setting": "FXII [3]", "value": "binds only to FXII"},
      {"measurement": "hPEPD degradation in plasma after adding human FIIa or FXa", "setting": "[4]; FVII tTA/tTA plasma", "value": "neither factor was effective"},
      {"measurement": "hPEPD degradation after incubation with plasma", "setting": "[4]; FVII tTA/tTA plasma, 24 h, RT", "value": "no degradation of hPEPD could be detected"},
      {"measurement": "hPEPD degradation in plasma after adding human FIIa or FXa", "setting": "[4]; WT plasma", "value": "markedly enhanced hPEPD degradation"},
      {"measurement": "hPEPD remained after incubation with plasma", "setting": "[4]; WT plasma, 24 h, RT", "value": 88.8, "unit": "%"},
      {"measurement": "hPEPD degradation in plasma after removal of FVII/FVIIa by immunodepletion", "setting": "[4]; WT plasma, with or without FIIa", "value": "abolished the residual hPEPD degradation or FIIa-enabled hPEPD degradation"},
      {"measurement": "effect of FIIa on hPEPD stability", "setting": "FIIa", "value": "had no effect on hPEPD stability"},
      {"measurement": "average plasma level of mSRC, increase", "setting": "plasma mSRC", "value": "remained unchanged"},
      {"measurement": "average plasma level of mAβ1-42, increase", "setting": "plasma Aβ1-42", "value": "remained unchanged"},
      {"measurement": "effect of FXa on hPEPD stability", "setting": "FXa", "value": "had no effect on hPEPD stability"}
    ]}
  ]
}
